These results are taken from patent publication US20110052597A1.

For experiment [1], the target named is N-terminal FLAG-tagged fusion protein including most of the extracellular region of human IL-13Rα1 (human) (UniProt P78552). Kind of experiment: BIACORE, receptor ECR immobilized on CM5 chip, mAb in solution.
For experiment [2], the target named is T1, cynomolgus IL-13Rα1.ECR, N-terminal FLAG-tagged fusion protein (cynomolgus macaque).
T1 sequence: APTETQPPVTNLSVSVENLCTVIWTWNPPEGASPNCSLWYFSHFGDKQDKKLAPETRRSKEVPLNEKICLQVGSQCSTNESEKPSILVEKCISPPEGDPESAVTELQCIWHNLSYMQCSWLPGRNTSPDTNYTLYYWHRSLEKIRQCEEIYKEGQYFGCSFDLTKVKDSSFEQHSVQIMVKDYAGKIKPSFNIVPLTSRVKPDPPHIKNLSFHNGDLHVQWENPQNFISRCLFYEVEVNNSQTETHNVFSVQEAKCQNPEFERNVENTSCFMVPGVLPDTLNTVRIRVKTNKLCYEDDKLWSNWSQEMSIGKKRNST
The description is as above.

B1: murine antibody 1D9 reported in WO 03/080675 (ECACC deposit 03032101) (antibody, from another filing, V domains shown)
VH: EVKLVESGGGLVKPGGSLKLSCAASGFTFSGYGMSWVRQTPEKRLEWVATISGLGGYTYYPDSVKGRFTISRDNAKNTLYLQMSSLRSDDTAFYYCARRFYGDYVGAMDYWGQGTSVTVSS
VL: DILMTQAAFSNPVTLGTSASISCRSSKSLLHSNGITYLYWYLQKPGQSPQLLIYQMSNLASGVPDRFSCSGSGTDFTLSISRVEAEDVGFYYCAQNLELPFTFGSGTKLEIE
For B1, the Kd in experiment [1] is 0.207 nM; in experiment [2] it was 0.247 nM.

By Kd is commonly meant the free concentration of one partner at which half of the binding sites on the other are occupied at equilibrium, for simple one-to-one binding. A high value points to a looser complex.
